Columns and labels:
[1] = target: T1, cMetECDHis (human, UniProt P08581 25-932, limits assumed, biotinylated in the cross-block ELISA of Example 17); assay: cross-block ELISA; competitor 024
T1 construct: Expressed in HEK-293F cells; also called soluble cMetECDHis; biotinylated cMetECDHis
Procedure: (§1) First, the optimal coating concentrations of the tested anti-c-Met antibodies and the optimal cMetECDHis concentration were determined. Therefore, ELISA wells were coated overnight at 4° C. with anti-c-Met HuMabs serially diluted in PBS (8 μg/mL in 2-fold dilutions). Next, the ELISA wells were washed with PBST (PBS supplemented with 0.05% Tween-20 [Sigma-Aldrich, Zwijndrecht, The Netherlands]) and blocked for one hour at room temperature (RT) with PBSTC (PBST supplemented 2% [v/v] chicken serum [Gibco, Paisley, Scotland]). Subsequently, the ELISA wells were washed with PBST and incubated for one hour at RT with biotinylated cMetECDHis serially diluted in PBSTC (1 μg/mL in 2-fold dilutions). Unbound biotinylated cMetECDHis was washed away with PBST, and bound biotinylated cMetECDHis was incubated for one hour at RT with 0.1 μg/mL Streptavidin-poly-HRP (Sanquin, Amsterdam, The Netherlands) diluted in PBST.
(§2) ELISA wells were coated with anti-c-Met antibody at a sub-optimal dose as described above. After blocking of the ELISA wells, they were incubated with the predetermined concentration of biotinylated cMetECDHis in the presence of an excess of anti-c-Met antibody. The reaction was developed as described above. Residual binding was expressed as a percentage relative to the binding observed in the absence of competitor antibody.

[2] = target: T1, cMetECDHis; assay: cross-block ELISA; competitor 035
Procedure: as §1, §2

[3] = target: T1, cMetECDHis; assay: cross-block ELISA; competitor 062
Procedure: as §1, §2

[4] = target: T1, cMetECDHis; assay: cross-block ELISA; competitor 022
Procedure: as §1, §2

[5] = target: T1, cMetECDHis; assay: cross-block ELISA; competitor 006
Procedure: as §1, §2

[6] = target: T1, cMetECDHis; assay: cross-block ELISA; competitor 5D5
Procedure: as §1, §2

[7] = target: T1, cMetECDHis; assay: cross-block ELISA; competitor 008
Procedure: as §1, §2

[8] = target: T1, cMetECDHis; assay: cross-block ELISA; competitor 181
Procedure: as §1, §2

[9] = target: T1, cMetECDHis; assay: cross-block ELISA; competitor 069
Procedure: as §1, §2

[10] = target: T1, cMetECDHis; assay: cross-block ELISA; competitor 045
Procedure: as §1, §2

[11] = target: T1, cMetECDHis; assay: cross-block ELISA; competitor 101
Procedure: as §1, §2

[12] = target: T1, cMetECDHis; assay: cross-block ELISA; competitor 058
Procedure: as §1, §2

[13] = target: T1, cMetECDHis; assay: cross-block ELISA; competitor 005
Procedure: as §1, §2

[14] = target: T1, cMetECDHis; assay: cross-block ELISA; competitor 064
Procedure: as §1, §2

[15] = target: T1, cMetECDHis; assay: BLI (Octet); antibody captured, cMetECDHis in solution
Procedure: Antibody binding to cMetECDHis was analyzed by means of Bio-Layer Interferometry (BLI) technology on the Octet System (Fortebio, Menlo Park, USA). Anti-human IgG coated biosensors (Fc-specific) were used to capture anti-c-Met antibodies according to the procedure recommended by the manufacturer. cMetECDHis derived from HEK293 cells was loaded on top of the immobilized anti-c-Met antibodies by placing the loaded biosensor into a well containing 10 μg/mL cMetECDHis diluted in 10 times diluted kinetics buffer (Fortebio). The difference in reflection of light (AA, nm) of the biosensor surface due to the binding of cMetECDHis was measured in real time during approximately 10 minutes and was used by the Octet software (V4.0, Fortebio) to calculate the association constant (kₐ [1/M×s]). Next, the loaded biosensor was placed into a well containing only kinetics buffer (10 times diluted in PBS) to determine the dissociation constant (kd [1/s]). Kinetics analysis was performed to determine the affinity (KD [M]) using model 1:1 (langmuir). As a positive control, 0.2 μg/mL 5D5 IgG1 produced in HEK293 cells, was used.

[16] = target: T1, cMetECDHis; assay: cross-block ELISA; competitor 068
Procedure: as §1, §2

[17] = target: T1, cMetECDHis; assay: cross-block ELISA; competitor 098
Procedure: as §1, §2

B1: anti-c-Met HuMab 035 (IgG1) (antibody, V domains shown)
VH: EVQLVQSGAEVKKPGESLKISCKGSGYSFTSYWIGWVRQMPGKGLEWMGIIYPGDSDTRYSPSFQGQVTISADKSISTAYLQWNSLKASDTAMYYCARQEITGEFDYWGQGTLVTVSS
VL: AIQLTQSPSSLSASVGDRVTITCRASQGISSALAWYQQKPGKAPKLLIYDASSLESGVPSRFSGSGSGTDFTLTISSLQPEDFATYYCQQFNSYPMYTFGQGTKLEIK
notes: also called P1016-035; TH1016-035-D09
- residual binding, % of no competitor [1]: 121%
- residual binding, % of no competitor [2]: 10.6%
- residual binding, % of no competitor [3]: 120%
- residual binding, % of no competitor [4]: 54.6%
- residual binding, % of no competitor [5]: 33%
- residual binding, % of no competitor [6]: 25.5%
- residual binding, % of no competitor [7]: 7.2%
- residual binding, % of no competitor [8]: 159%
- residual binding, % of no competitor [9]: 151%
- residual binding, % of no competitor [10]: 125%
- residual binding, % of no competitor [11]: 113%
- residual binding, % of no competitor [12]: 18.5%
- residual binding, % of no competitor [13]: 36.7%
- residual binding, % of no competitor [14]: 132%
- Kd [15]: 13.9 nM
- koff [15]: 0.00368 s⁻¹
- kon [15]: 264000 M⁻¹ s⁻¹
- residual binding, % of no competitor [16]: 175%
- residual binding, % of no competitor [17]: 126%

B2: anti-c-Met HuMab 098 (IgG1) (antibody, V domains shown)
VH: QVQLVQSGAEVKKPGASVKVSCKASGYTFTNFGISWVRQAPGQGLEWMGWISAFNGHTDYSQKVQGRVTMTTDTSTSTAYMELRSLRSDDTAVFYCARSHYYGSGSPFDYWGQGTLVTVSS
VL: DIQMTQSPSSLSASVGDRVTITCRASQGISNWLAWYQQKPEKAPKSLIYAASSLQSGVPSRFSGSGSGTDFTLTISSLQPEDFATYYCHQYKSYPWTFGQGTKVEIK
notes: also called TH1016-098; PC1016-098
- residual binding, % of no competitor [1]: 12.9%
- residual binding, % of no competitor [2]: 89.4%
- residual binding, % of no competitor [3]: 8.8%
- residual binding, % of no competitor [4]: 95.8%
- residual binding, % of no competitor [5]: 97.9%
- residual binding, % of no competitor [6]: 94.9%
- residual binding, % of no competitor [7]: 99.8%
- residual binding, % of no competitor [8]: 12%
- residual binding, % of no competitor [9]: 3.4%
- residual binding, % of no competitor [10]: 96.7%
- residual binding, % of no competitor [11]: 4%
- residual binding, % of no competitor [12]: 98.6%
- residual binding, % of no competitor [13]: 99.6%
- residual binding, % of no competitor [14]: 9.3%
- Kd [15]: 1.82 nM
- koff [15]: 0.000297 s⁻¹
- kon [15]: 164000 M⁻¹ s⁻¹
- residual binding, % of no competitor [16]: 18%
- residual binding, % of no competitor [17]: 2.6%

B3: IgG1-1016-069 (antibody, V domains shown)
VH: QVQLVQSGAEVKKPGASVKVSCETSGYTFTSYGISWVRQAPGHGLEWMGWISAYNGYTNYAQKLQGRVTMTTDTSTSTAYMELRSLRSDDTAVYYCARDLRGTNYFDYWGQGTLVTVSS
VL: DIQMTQSPSSVSASVGDRVTITCRASQGISNWLAWFQHKPGKAPKLLIYAASSLLSGVPSRFSGSGSGTDFTLTISSLQPEDFATYYCQQANSFPITFGQGTRLEIK
notes: also called clone 069; TH1016-069
- residual binding, % of no competitor [1]: 6.6%
- residual binding, % of no competitor [2]: 91.7%
- residual binding, % of no competitor [3]: 2.2%
- residual binding, % of no competitor [4]: 97.8%
- residual binding, % of no competitor [5]: 100%
- residual binding, % of no competitor [6]: 99.4%
- residual binding, % of no competitor [7]: 102%
- residual binding, % of no competitor [8]: 6.3%
- residual binding, % of no competitor [9]: 2.4%
- residual binding, % of no competitor [10]: 99.8%
- residual binding, % of no competitor [11]: 3.9%
- residual binding, % of no competitor [12]: 101%
- residual binding, % of no competitor [13]: 102%
- residual binding, % of no competitor [14]: 2.3%
- Kd [15]: 1.26 nM
- koff [15]: 0.000267 s⁻¹
- kon [15]: 212000 M⁻¹ s⁻¹
- residual binding, % of no competitor [16]: 10.1%
- residual binding, % of no competitor [17]: 12.5%

B4: anti-c-Met HuMab 181 (IgG1) (antibody, V domains shown)
VH: QVQLVQSGAEVKKPGASVKVSCKASGYTFTSYGISWVRQAPGQGLEWMGWISTYNGYTNYAQKLQGRVTMTTDTSTSTAYMELRSLRSDDTAVYYCARDLRGTAYFDYWGQGTLVTVSS
VL: DIQMTQSPSSVSASVGDRVTITCRASQGISNWLAWYQHKPGKAPKLLIYAASSLLSGVPSRFSGSGSGTDFTLTISSLQPEDFATYYCQQANSFPITFGQGTRLEIK
notes: also called TH1016-181; PC1016-181
- residual binding, % of no competitor [1]: 4.3%
- residual binding, % of no competitor [2]: 96%
- residual binding, % of no competitor [3]: 2%
- residual binding, % of no competitor [4]: 92.5%
- residual binding, % of no competitor [5]: 93.7%
- residual binding, % of no competitor [6]: 94.2%
- residual binding, % of no competitor [7]: 98.7%
- residual binding, % of no competitor [8]: 3.6%
- residual binding, % of no competitor [9]: 2.2%
- residual binding, % of no competitor [10]: 96.8%
- residual binding, % of no competitor [11]: 2.4%
- residual binding, % of no competitor [12]: 98.9%
- residual binding, % of no competitor [13]: 95.9%
- residual binding, % of no competitor [14]: 2.1%
- Kd [15]: 2.23 nM
- koff [15]: 0.000531 s⁻¹
- kon [15]: 237000 M⁻¹ s⁻¹
- residual binding, % of no competitor [16]: 6.5%
- residual binding, % of no competitor [17]: 5.1%

B5: anti-c-Met HuMab 045 (IgG1) (antibody, V domains shown)
VH: EVQLLESGGGLVQPGGSLRLSCAASGFTFSSYAMSWVRQAPGKGLEWVSVISGSGGITYYADSVKGRFTISRDNSKNTLYLQMNSLRAEDTAVYYCARDRGWGSDYWGQGTLVTVSS
VL: EIVLTQSPATLSLSPGERATLSCRASQSVSSYLAWYQQKPGQAPRLLIYDASNRATGIPARFSGSGSGTDFTLTISSLEPEDFAVYYCQQRSNWPFTFGPGTKVDIK
notes: also called TH1016-045; PC1016-045
- residual binding, % of no competitor [1]: 102%
- residual binding, % of no competitor [2]: 105%
- residual binding, % of no competitor [3]: 103%
- residual binding, % of no competitor [4]: 105%
- residual binding, % of no competitor [5]: 111%
- residual binding, % of no competitor [6]: 27.8%
- residual binding, % of no competitor [7]: 98.5%
- residual binding, % of no competitor [8]: 99.4%
- residual binding, % of no competitor [9]: 97%
- residual binding, % of no competitor [10]: 21.3%
- residual binding, % of no competitor [11]: 102%
- residual binding, % of no competitor [12]: 115%
- residual binding, % of no competitor [13]: 111%
- residual binding, % of no competitor [14]: 104%
- Kd [15]: 2.87 nM
- koff [15]: 0.00207 s⁻¹
- kon [15]: 721000 M⁻¹ s⁻¹
- residual binding, % of no competitor [16]: 113%
- residual binding, % of no competitor [17]: 76.4%

From patent publication US20150329642A1 (Genmab, published 2015)
